# Values quoted from earlier work in article PMC4798892.
# How the values were obtained:
# [1] = biological target: Histone H3 (H3K9me3) (Homo sapiens) (UniProt P68431)
# [2] = biological target: Histone H3 (H3K4me0) (Homo sapiens) (UniProt P68431)
# [3] = biological target: Histone H3 (H3K9me3S10ph) (Homo sapiens) (UniProt P68431)
substance,measurement,setting,value
ATRX ADD (from UniProt P46100),Kd,[1],110 nM
same,Kd,[2],3000 nM
same,Kd,[3],190 nM
